The source of these data is US20240336661A1, “PEPTIDES DERIVED FROM RUMINOCOCCUS TORQUES” (University of Copenhagen, priority 2021, published 2024).

Experiment [1] relates to murine inguinal white adipocytes. Nature of the experiment: Thermogenesis gene expression in murine inguinal adipocytes (q-PCR). Type of experiment: cell-based, mouse. To be noted: murine inguinal white adipocytes from stromal vascular fraction, treated 4 days. As to the method:
(§1) FIG. 9. Exposure of recombinant RUCILP2 to human visceral white pre-adipocytes or murine inguinal white adipocytes causes up-regulation of the expression of genes involved in thermogenesis/browning. Upper panel: mRNA expression level of adipocyte differentiation marker genes including Ucp1, Pparγ1, Dio2, and Cox2 and brown adipocyte-selective genes including Cpt1b and Ebf2 on human white preadipocytes (HWP). Human white preadipocytes were cultured until 80% confluent and switched into differentiation media (with 0.3 ml/ml fetal calf serum, 8 ug/ml d-biotin, 0.5 ug/ml insulin, 400 ng/ml dexamethasone). The differentiation process to mature adipocytes was completed after 12-14 days. The treatment of RUCILP2 started from the third day of differentiation. Cells were harvested after 14 days of differentiation and the gene expressions were quantified by q-PCR. […] Statistical significance was determined by unpaired two-tailed Student's t test. *, p<0.05 vs 0 nM RUCILP2.
(§2) FIG. 28. […] Cells were harvested after 14 days of differentiation and the indicated genes were quantified by q-PCR. […] Cells were harvested after 6 days of differentiation and thermogenesis gene were quantified by q-PCR. […] Cells were harvested after 4 days of differentiation and expression of myogenesis genes were quantified by q-PCR. […] Statistical significance was determined by unpaired two-tailed Student's t test, *, p<0.05 […]

The test system of experiment [2] is human visceral white pre-adipocytes. The experiment in a line: Thermogenesis/browning gene expression in human visceral white pre-adipocytes (q-PCR). Type of experiment: cell-based. To be noted: human white preadipocytes, treatment from third day of differentiation, harvested after 14 days. As to the method:
as §1, §2

B1: RUCILP2: 87 amino acid irisin-like polypeptide cleaved from the Ruminococcus torques FNDC5-like protein RUMTOR_00181; recombinant, 6-His-tagged from E. coli (protein)
chain: APVDVKVSEITETSAKASWKNAADGKEAAGYNVYVDGVKLNKELLTEASCGLTNLKAETTYFVEVTAVDAAGNESVKSEKVTFKTLK
modifications: 6-His tag; Ruminococcus torques
notes: 87 amino acid irisin-like polypeptide cleaved from the Ruminococcus torques FNDC5-like protein RUMTOR_00181; recombinant, 6-His-tagged from E. coli
On to B1, for which, in experiment [1], the “expression of genes involved in thermogenesis/browning” value was “up-regulation”. In experiment [2], the “expression of genes involved in thermogenesis/browning (Ucp1, Pparγ1, Dio2, Cox2, Cpt1b, Ebf2)” value was “up-regulation”.
